This is an account of results in IntAct's records for PubMed 25910212.

Sequences and labels used below:
B1: Serotonin N-acetyltransferase (Homo sapiens), Q16613 (parent)
chain: MSTQSTHPLKPEAPRLPPGIPESPSCQRRHTLPASEFRCLTPEDAVSAFEIEREAFISVLGVCPLYLDEIRHFLTLCPELSLGWFEEGCLVAFIIGSLWDKERLMQESLTLHRSGGHIAHLHVLAVHRAFRQQGRGPILLWRYLHHLGSQPAVRRAALMCEDALVPFYERFSFHAVGPCAITVGSLTFMELHCSLRGHPFLRRNSGC
B2: U4/U6 small nuclear ribonucleoprotein Prp31 (Homo sapiens), Q8WWY3 (parent)
chain: MSLADELLADLEEAAEEEEGGSYGEEEEEPAIEDVQEETQLDLSGDSVKTIAKLWDSKMFAEIMMKIEEYISKQAKASEVMGPVEAAPEYRVIVDANNLTVEIENELNIIHKFIRDKYSKRFPELESLVPNALDYIRTVKELGNSLDKCKNNENLQQILTNATIMVVSVTASTTQGQQLSEEELERLEEACDMALELNASKHRIYEYVESRMSFIAPNLSIIIGASTAAKIMGVAGGLTNLSKMPACNIMLLGAQRKTLSGFSSTSVLPHTGYIYHSDIVQSLPPDLRRKAARLVAAKCTLAARVDSFHESTEGKVGYELKDEIERKFDKWQEPPPVKQVKPLPAPLDGQRKKRGGRRYRKMKERLGLTEIRKQANRMSFGEIEEDAYQEDLGFSLGHLGKSGSGRVRQTQVNEATKARISKTLQRTLQKQSVVYGGKSTIRDRSSGTASSVAFTPLQGLEIVNPQAAEKKVAEANQKYFSSMAEFLKVKGEKSGLMST
partner: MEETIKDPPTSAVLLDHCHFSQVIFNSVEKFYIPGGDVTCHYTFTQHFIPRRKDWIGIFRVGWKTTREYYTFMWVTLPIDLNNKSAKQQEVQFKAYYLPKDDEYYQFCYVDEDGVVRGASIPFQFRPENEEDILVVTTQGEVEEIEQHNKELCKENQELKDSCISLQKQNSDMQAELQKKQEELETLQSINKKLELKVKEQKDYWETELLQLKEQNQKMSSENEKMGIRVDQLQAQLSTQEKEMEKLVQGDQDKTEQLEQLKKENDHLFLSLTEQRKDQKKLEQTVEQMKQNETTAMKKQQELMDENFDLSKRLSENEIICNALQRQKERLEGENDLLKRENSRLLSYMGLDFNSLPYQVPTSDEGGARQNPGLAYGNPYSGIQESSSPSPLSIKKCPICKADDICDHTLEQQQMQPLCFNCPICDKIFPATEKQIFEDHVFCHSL
B3: Neutrophil cytosol factor 2 (Homo sapiens), P19878 (parent)
chain: MSLVEAISLWNEGVLAADKKDWKGALDAFSAVQDPHSRICFNIGCMYTILKNMTEAEKAFTRSINRDKHLAVAYFQRGMLYYQTEKYDLAIKDLKEALIQLRGNQLIDYKILGLQFKLFACEVLYNIAFMYAKKEEWKKAEEQLALATSMKSEPRHSKIDKAMECVWKQKLYEPVVIPVGKLFRPNERQVAQLAKKDYLGKATVVASVVDQDSFSGFAPLQPQAAEPPPRPKTPEIFRALEGEAHRVLFGFVPETKEELQVMPGNIVFVLKKGNDNWATVMFNGQKGLVPCNYLEPVELRIHPQQQPQEESSPQSDIPAPPSSKAPGRPQLSPGQKQKEEPKEVKLSVPMPYTLKVHYKYTVVMKTQPGLPYSQVRDMVSKKLELRLEHTKLSYRPRDSNELVPLSEDSMKDAWGQVKNYCLTLWCENTVGDQGFPDEPKESEKADANNQTTEPQLKKGSQVEALFSYEATQPEDLEFQEGDIILVLSKVNEEWLEGECKGKVGIFPKVFVEDCATTDLESTRREV
B4: Elongation factor Ts, mitochondrial (Homo sapiens), P43897-2 (parent)
chain: MSLLRSLRVFLVARTGSYPAGSLLRQSPQPRHTFYAGPRLSASASSKELLMKLRRKTGYSFVNCKKALETCGGDLKQAEIWLHKEAQKEGWSKAAKLQGRKTKEGLIGLLQEGNTTVLVEVNCETDFVSRNLKFQLLVQQVALGTMMHCQTLKDQPSAYSKVQWLTPVNLALWEAEAGGSLEGFLNSSELSGLPAGPDREGSLKDQLALAIGKLGENMILKRAAWVKVPSGFYVGSYVHGAMQSPSLHKLVLGKYGALVICETSEQKTNLEDVGRRLGQHVVGMAPLSVGSLDDEPGGEAETKMLSQPYLLDPSITLGQYVQPQGVSVVDFVRFECGEGEEAAETE
partner: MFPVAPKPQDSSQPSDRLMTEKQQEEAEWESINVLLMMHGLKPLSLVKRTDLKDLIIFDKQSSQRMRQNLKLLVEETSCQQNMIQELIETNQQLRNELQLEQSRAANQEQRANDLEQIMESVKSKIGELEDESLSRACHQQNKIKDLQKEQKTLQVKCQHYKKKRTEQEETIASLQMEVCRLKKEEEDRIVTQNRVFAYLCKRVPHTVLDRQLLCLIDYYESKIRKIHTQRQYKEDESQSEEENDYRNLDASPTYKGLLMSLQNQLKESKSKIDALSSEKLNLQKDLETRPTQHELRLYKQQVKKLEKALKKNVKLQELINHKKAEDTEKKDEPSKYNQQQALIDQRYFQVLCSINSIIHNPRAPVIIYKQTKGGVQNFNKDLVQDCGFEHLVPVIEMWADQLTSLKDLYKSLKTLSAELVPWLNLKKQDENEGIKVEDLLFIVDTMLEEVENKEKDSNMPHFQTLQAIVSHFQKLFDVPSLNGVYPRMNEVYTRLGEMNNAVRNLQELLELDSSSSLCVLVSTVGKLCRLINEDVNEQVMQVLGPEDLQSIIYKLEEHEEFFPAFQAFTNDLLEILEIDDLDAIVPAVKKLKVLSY
B5: Emerin (Homo sapiens), P50402 (parent)
chain: MDNYADLSDTELTTLLRRYNIPHGPVVGSTRRLYEKKIFEYETQRRRLSPPSSSAASSYSFSDLNSTRGDADMYDLPKKEDALLYQSKGYNDDYYEESYFTTRTYGEPESAGPSRAVRQSVTSFPDADAFHHQVHDDDLLSSSEEECKDRERPMYGRDSAYQSITHYRPVSASRSSLDLSYYPTSSSTSFMSSSSSSSSWLTRRAIRPENRAPGAGLGQDRQVPLWGQLLLFLVFVIVLFFIYHFMQAEEGNPF
partner: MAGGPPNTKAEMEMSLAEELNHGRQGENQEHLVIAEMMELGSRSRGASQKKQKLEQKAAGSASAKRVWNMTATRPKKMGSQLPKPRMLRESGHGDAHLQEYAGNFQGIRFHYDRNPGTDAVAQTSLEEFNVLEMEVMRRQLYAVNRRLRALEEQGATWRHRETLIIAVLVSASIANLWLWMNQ
B6: Adiponectin (Homo sapiens), Q15848 (parent)
chain: MLLLGAVLLLLALPGHDQETTTQGPGVLLPLPKGACTGWMAGIPGHPGHNGAPGRDGRDGTPGEKGEKGDPGLIGPKGDIGETGVPGAEGPRGFPGIQGRKGEPGEGAYVYRSAFSVGLETYVTIPNMPIRFTKIFYNQQNHYDGSTGKFHCNIPGLYYFAYHITVYMKDVKVSLFKKDKAMLFTYDQYQENNVDQASGSVLLHLEVGDQVWLQVYGEGERNGLYADNDNDSTFTGFLLYHDTN

The first test covers variants of B1. To be noted: with bhe40_human BHLHE40, O14503.
Sequence of bhe40_human BHLHE40, O14503 (O14503 whole entry): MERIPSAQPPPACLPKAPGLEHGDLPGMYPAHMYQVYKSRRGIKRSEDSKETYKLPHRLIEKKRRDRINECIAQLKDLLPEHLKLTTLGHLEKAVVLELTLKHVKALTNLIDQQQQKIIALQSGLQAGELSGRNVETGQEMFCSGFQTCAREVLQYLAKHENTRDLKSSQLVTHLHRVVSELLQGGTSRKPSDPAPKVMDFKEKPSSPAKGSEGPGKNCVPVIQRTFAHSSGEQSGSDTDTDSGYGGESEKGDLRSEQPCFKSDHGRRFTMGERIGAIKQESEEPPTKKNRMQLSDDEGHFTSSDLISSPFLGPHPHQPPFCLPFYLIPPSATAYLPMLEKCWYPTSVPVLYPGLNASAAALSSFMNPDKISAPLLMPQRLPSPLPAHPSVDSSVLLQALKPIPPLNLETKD
Regarding A129T, the “effect of a mutation on the interaction” value is on record as “disrupting interaction strength”.
Still for that read-out and setting: as for T3M, the entry is “with no effect”.

The variants in the next test derive from B1. To be noted: with mdfi_human MDFI.
A129T: the “effect of a mutation on the interaction” value is reported as “with no effect”.
The same measure, in the same setting: as for T3M, the entry is “with no effect”.

Variants of B2 are the subject of another test. Particulars: with caco2_human CALCOCO2, Q13137.
Regarding L107V, the “effect of a mutation on the interaction” value is on record as “with no effect”.

The variants in the next test derive from B3. Particulars: with goga2_human GOLGA2, Q08379.
Sequence of goga2_human GOLGA2, Q08379 (Q08379 whole entry): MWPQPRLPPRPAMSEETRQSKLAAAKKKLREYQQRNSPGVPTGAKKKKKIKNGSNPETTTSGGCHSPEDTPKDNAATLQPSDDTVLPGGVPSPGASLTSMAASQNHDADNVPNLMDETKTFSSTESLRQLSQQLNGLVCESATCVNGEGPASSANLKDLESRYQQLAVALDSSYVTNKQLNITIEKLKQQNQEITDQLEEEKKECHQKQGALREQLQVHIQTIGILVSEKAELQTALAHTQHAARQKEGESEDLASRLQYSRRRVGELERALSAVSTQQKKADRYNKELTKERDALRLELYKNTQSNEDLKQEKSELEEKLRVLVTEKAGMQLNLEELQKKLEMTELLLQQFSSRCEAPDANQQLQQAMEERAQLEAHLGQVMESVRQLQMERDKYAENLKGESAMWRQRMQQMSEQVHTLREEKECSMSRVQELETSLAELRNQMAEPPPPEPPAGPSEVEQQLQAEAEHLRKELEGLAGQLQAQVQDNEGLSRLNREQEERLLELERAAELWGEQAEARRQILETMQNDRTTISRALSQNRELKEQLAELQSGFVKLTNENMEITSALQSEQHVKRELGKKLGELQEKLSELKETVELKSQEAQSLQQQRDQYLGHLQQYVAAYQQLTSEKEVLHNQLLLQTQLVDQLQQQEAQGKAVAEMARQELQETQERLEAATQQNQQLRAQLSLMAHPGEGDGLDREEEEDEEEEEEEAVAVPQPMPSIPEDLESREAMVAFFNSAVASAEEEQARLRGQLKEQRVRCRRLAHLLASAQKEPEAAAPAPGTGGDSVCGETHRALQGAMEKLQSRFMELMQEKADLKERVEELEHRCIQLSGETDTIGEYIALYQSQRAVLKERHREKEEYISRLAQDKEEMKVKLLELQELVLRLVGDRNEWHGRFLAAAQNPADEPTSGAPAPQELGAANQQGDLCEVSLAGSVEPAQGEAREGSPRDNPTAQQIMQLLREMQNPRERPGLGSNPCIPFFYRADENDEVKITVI
Take N419I: the “effect of a mutation on the interaction” value was “with no effect”.
The same measure, in the same setting: then R395W, with “with no effect”.
The same measure, in the same setting: as for R77Q, the entry is “disrupting interaction strength”.
Still for that read-out and setting: then G78E, with “disrupting interaction strength”.

The variants in a further test derive from B3. To be noted: with kifa3_human KIFAP3, Q92845.
Sequence of kifa3_human KIFAP3, Q92845 (Q92845 whole entry): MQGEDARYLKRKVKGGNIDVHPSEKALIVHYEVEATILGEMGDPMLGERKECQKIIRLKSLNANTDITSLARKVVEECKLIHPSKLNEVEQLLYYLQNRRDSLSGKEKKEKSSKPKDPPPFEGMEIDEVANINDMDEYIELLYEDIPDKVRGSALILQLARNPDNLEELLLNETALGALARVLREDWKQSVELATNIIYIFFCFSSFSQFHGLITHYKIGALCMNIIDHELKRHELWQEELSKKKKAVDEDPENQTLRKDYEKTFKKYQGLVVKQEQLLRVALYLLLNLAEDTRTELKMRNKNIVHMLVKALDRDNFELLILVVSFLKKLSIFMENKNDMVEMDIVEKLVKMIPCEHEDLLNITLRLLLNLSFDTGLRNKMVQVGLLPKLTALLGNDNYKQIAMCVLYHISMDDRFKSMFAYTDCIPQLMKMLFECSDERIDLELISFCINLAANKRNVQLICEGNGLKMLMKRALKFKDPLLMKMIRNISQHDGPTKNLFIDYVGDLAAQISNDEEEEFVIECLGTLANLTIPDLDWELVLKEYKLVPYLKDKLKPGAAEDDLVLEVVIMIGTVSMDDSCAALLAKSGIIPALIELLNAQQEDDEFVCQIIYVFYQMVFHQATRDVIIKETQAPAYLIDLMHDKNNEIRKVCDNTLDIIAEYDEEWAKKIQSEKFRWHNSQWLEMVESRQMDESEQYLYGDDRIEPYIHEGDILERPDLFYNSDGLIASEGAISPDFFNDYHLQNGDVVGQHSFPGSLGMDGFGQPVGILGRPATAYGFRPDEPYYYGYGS
Turning to N419I, the “effect of a mutation on the interaction” value is given as “with no effect”.
Still for that read-out and setting: as for R395W, the entry is “with no effect”.
Consider R77Q, for which the “effect of a mutation on the interaction” value is on record as “disrupting interaction strength”.
The same measure, in the same setting: as for G78E, the entry is “disrupting interaction strength”.

Variants of B4 are the subject of the next test. Particulars: with cep70_human CEP70, Q8NHQ1.
On to R333W, for which the “effect of a mutation on the interaction” value is listed as “disrupting interaction strength”.

The variants in the next test derive from B5. Particulars: with fate1_human FATE1, Q969F0.
Regarding D72V, the “effect of a mutation on the interaction” value is recorded as “with no effect”.
Turning to S54F, the “effect of a mutation on the interaction” value is reported as “with no effect”.
On the same count and under the same terms, as for P183H, the entry is “with no effect”; as for P183T, “with no effect”.

Another test covers variants of B6. To be noted: with bni3l_human BNIP3L.
Y111H: the “effect of a mutation on the interaction” value was “with no effect”.
Same read-out and setting: as for I164T, the entry is “with no effect”.

Variants of B6 are the subject of a further test. To be noted: with sgta_human SGTA.
As to Y111H, the “effect of a mutation on the interaction” value was “with no effect”.
On to I164T, for which the “effect of a mutation on the interaction” value was “with no effect”.
